These results are taken from patent US7109170B2, “Region of factor IXa protease domain that interacts with factor VIIIa and methods therefor” (Saint Louis University, priority 1999, dated 2006).

The assay addresses T1, factor VIIIa (Homo sapiens, UniProt P00451).
T1 construct: purchased Dr. Leon Hoyer (American Red Cross, Rockville, Md.)
T1 sequence (P00451 20-759 limits assumed): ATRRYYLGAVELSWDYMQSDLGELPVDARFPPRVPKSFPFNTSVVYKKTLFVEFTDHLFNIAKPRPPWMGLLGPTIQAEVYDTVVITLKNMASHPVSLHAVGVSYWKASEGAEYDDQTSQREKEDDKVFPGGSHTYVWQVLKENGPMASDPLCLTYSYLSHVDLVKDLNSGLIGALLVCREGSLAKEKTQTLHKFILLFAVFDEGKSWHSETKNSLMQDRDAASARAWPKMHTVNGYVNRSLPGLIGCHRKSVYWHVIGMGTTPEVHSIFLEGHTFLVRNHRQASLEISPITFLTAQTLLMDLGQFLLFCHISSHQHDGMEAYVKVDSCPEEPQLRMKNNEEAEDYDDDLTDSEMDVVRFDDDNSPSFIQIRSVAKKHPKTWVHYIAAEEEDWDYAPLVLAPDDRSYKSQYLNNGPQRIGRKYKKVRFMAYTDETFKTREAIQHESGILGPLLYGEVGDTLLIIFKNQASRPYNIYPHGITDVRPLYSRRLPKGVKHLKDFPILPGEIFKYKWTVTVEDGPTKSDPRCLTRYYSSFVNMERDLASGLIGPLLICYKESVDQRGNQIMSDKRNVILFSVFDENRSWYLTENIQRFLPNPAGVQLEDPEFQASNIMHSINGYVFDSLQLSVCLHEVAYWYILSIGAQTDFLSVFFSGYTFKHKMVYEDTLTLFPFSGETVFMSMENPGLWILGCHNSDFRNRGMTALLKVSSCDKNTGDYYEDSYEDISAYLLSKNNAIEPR
T1 sequence (P00451 1668-2351 limits assumed): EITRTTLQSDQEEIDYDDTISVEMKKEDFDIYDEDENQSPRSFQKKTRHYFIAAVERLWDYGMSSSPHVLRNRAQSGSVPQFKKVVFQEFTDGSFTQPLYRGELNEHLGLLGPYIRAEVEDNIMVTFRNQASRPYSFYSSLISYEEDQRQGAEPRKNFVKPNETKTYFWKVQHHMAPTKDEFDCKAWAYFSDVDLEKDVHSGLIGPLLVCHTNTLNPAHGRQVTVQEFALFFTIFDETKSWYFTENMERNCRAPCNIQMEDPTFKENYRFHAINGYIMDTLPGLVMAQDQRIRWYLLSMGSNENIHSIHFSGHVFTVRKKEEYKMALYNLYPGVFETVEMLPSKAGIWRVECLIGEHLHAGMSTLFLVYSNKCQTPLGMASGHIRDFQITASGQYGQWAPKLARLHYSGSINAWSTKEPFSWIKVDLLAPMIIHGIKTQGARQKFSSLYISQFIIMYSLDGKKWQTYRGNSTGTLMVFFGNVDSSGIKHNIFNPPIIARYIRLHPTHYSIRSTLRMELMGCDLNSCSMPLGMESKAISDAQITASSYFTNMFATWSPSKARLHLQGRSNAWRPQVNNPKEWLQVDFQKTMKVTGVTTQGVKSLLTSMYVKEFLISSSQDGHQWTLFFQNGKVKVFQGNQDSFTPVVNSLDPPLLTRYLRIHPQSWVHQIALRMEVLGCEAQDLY
In words: inhibition of Xa generation by active site-blocked (DEGR) IXa proteins, absence of phospholipid (Kd,app for VIIIa). It is filed as biochemical. The procedure:
Apparent Kds of factor VIIIa binding to various active site-blocked factor IXa proteins were determined from inhibition experiments as detailed in Mathur et al., 1997, supra. […] Reactions were carried out for 2 min and the rates of factor X activation were measured as outlined above.
Various DEGR-ck-inhibited factor IXa proteins were prepared for these experiments as follows. IXNP, IXWT, and each mutant factor IX at 200 μg/ml was activated by factor XIa (2 μg/ml) for 90 min. in TBS, pH 7.4 (0.05 M Tris, 0.15 M NaCl, pH 7.4) containing 5 mM Ca^2+.
Enzymol. 74, 481–508 given below:
[formula] where y is the rate of Xa formation in the presence of a given concentration of DEGR-IXa protein represented by x, a is the maximum rate of Xa formation in the absence of DEGR-IXa, and s is the slope factor. Each point was weighted equally and the data were fitted to Equation 1 using the nonlinear regression analysis program obtained from Erithacus Software (GraFit). […] To obtain the Kd,app values for the interaction of DEGR-IXa proteins with factor VIIIa, the following equation was used, as described by Cheng and Prusoff, 1973, Biochem. Pharmacol. 22, 3099–3108 and further discussed by Craig, 1993, Trends Pharmacol. Sci. 6, 68–71.

For “IXaV331A: activated factor IX mutant V331A”, the “fold-reduction in affinity for factor VIIIa compared with DEGR-IXaWT” value (absence of phospholipid) is listed as 7 fold. The Kd (active site-blocked (DEGR) IXa proteins, no phospholipid, read-out: Kd, app for interaction with factor VIIIa, PL-minus system) was found to be 1350 ± 310 nM.
